Laboratory results as given in the supplement of paper PMC7125110.
± gives the standard error. Fewer inactive variants are shown than the library holds.

B1: glmS ribozyme (parent)
chain: AUAAAAGCGCCAGAACUACAGAAAUGUAGUUGACGAGGAGGAGGUUUAUCGAAUUUUCGGCGGAUGCCUCCAAA

What was measured:
Conditions in all cases: with glucosamine-6-phosphate
glucosamine-6-phosphate [1] = variants of: B1; assay: self-cleavage kobs at 40 uM GlcN6P; higher = faster cleavage; RNA array
Summary of the method: (§1)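 A hybridised Cy3 probe tracked barcoded ribozyme variants, transcribed in situ by E. coli RNA polymerase on sequenced MiSeq chips, at 37 °C. The variants received 40 μM to 10 mM glucosamine-6-phosphate in HEPES/KCl/Mg(OAc)2 buffer. kobs came from decay fits and kcat and KM from weighted Michaelis–Menten fits.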

glucosamine-6-phosphate [2] = variants of: B1; assay: self-cleavage kobs at 160 uM GlcN6P; higher = faster cleavage; RNA array
Summary of the method: as §1

glucosamine-6-phosphate [3] = variants of: B1; assay: self-cleavage kobs at 640 uM GlcN6P; higher = faster cleavage; RNA array
Summary of the method: as §1

glucosamine-6-phosphate [4] = variants of: B1; assay: self-cleavage kobs at 2500 uM GlcN6P; higher = faster cleavage; RNA array
Summary of the method: as §1

glucosamine-6-phosphate [5] = variants of: B1; assay: self-cleavage kobs at 10000 uM GlcN6P; higher = faster cleavage; RNA array
Summary of the method: as §1

| Variant | self-cleavage kobs at 40 uM GlcN6P (glucosamine-6-phosphate [1]) [s⁻¹] | self-cleavage kobs at 160 uM GlcN6P (glucosamine-6-phosphate [2]) [s⁻¹] | self-cleavage kobs at 640 uM GlcN6P (glucosamine-6-phosphate [3]) [s⁻¹] | self-cleavage kobs at 2500 uM GlcN6P (glucosamine-6-phosphate [4]) [s⁻¹] | self-cleavage kobs at 10000 uM GlcN6P (glucosamine-6-phosphate [5]) [s⁻¹] |
| --- | --- | --- | --- | --- | --- |
| U30A U49C | < 1e-05 | < 1e-05 | < 1e-05 | < 1e-05 | < 1e-05 |
| A15U A33C A36C G37U G40C C58U | < 1e-05 | – | – | – | < 1e-05 |
| A15U G29U G60C | < 1e-05 | – | – | – | – |
| C16G G35C | < 1e-05 | – | < 1e-05 | < 1e-05 | < 1e-05 |
| A15G U31G U69C | 4.45e-05 ± 1.7e-05 | – | – | – | – |
| A15G C50A A64G | < 1e-05 | – | – | – | – |
| A15G A42G C68U | 0.000393 ± 0.00011 | – | – | – | 0.0101 ± 0.0045 |
| A15G G44U G51C A52G U56G | < 1e-05 | < 1e-05 | < 1e-05 | – | – |
| U31A G37A C50G A53U C67U | 5.38e-05 ± 1.9e-05 | – | – | – | – |
| G32A A36C A42G C70G | < 1e-05 | – | – | – | < 1e-05 |
| G13U C50A | < 1e-05 | – | – | – | – |
| C16A G62U | < 1e-05 | < 1e-05 | < 1e-05 | – | – |
| A15G G43C | < 1e-05 | < 1e-05 | < 1e-05 | < 1e-05 | < 1e-05 |
| A14C G35U C70U | < 1e-05 | – | – | – | < 1e-05 |
| U30C A42U G44A A48G G59A | < 1e-05 | – | – | < 1e-05 | – |
| U30G G62C | < 1e-05 | < 1e-05 | < 1e-05 | – | < 1e-05 |
| A14G U31A A36U A64G | < 1e-05 | – | – | – | – |
| G29U U45G G59C C67U | < 1e-05 | – | – | – | < 1e-05 |
| U30C G43C | < 1e-05 | < 1e-05 | < 1e-05 | < 1e-05 | < 1e-05 |
| G13U A53G G63A C68U | < 1e-05 | – | – | – | < 1e-05 |
| U30G G51A | < 1e-05 | < 1e-05 | < 1e-05 | – | – |
| A14G A53U U55G | 0.000607 ± 0.00013 | – | – | – | 0.036 ± 0.013 |
| A15C G66A | 8.43e-05 ± 1.9e-05 | 0.000372 ± 0.00011 | 0.000599 ± 0.00014 | 0.00264 ± 0.00049 | 0.00503 ± 0.0012 |
| C19U G38A | < 1e-05 | – | – | – | – |

| Variant | self-cleavage kobs at 40 uM GlcN6P (glucosamine-6-phosphate [1]) [s⁻¹] | self-cleavage kobs at 160 uM GlcN6P (glucosamine-6-phosphate [2]) [s⁻¹] | self-cleavage kobs at 640 uM GlcN6P (glucosamine-6-phosphate [3]) [s⁻¹] | self-cleavage kobs at 2500 uM GlcN6P (glucosamine-6-phosphate [4]) [s⁻¹] | self-cleavage kobs at 10000 uM GlcN6P (glucosamine-6-phosphate [5]) [s⁻¹] |
| --- | --- | --- | --- | --- | --- |
| U30C G38U G43C U46G | < 1e-05 | – | < 1e-05 | – | < 1e-05 |
| A14G U54A G59A | < 1e-05 | – | – | 8.37e-05 ± 2.7e-05 | 0.000121 ± 3.2e-05 |
| A14C C70U | 0.000159 ± 1.4e-05 | 0.000308 ± 3.9e-05 | 0.000897 ± 9.5e-05 | 0.00439 ± 0.0007 | 0.00953 ± 0.0013 |
| U30G A48C C70G | < 1e-05 | – | – | – | – |
| U31G C34U G59A | < 1e-05 | – | < 1e-05 | < 1e-05 | < 1e-05 |
| A15C A36C C71U | < 1e-05 | – | – | – | < 1e-05 |
| C16A C34A | < 1e-05 | < 1e-05 | < 1e-05 | < 1e-05 | < 1e-05 |
| C16A C34U | < 1e-05 | < 1e-05 | < 1e-05 | < 1e-05 | – |
| A15G U46G A48U G59A | < 1e-05 | < 1e-05 | – | < 1e-05 | < 1e-05 |
| G13U C50G C61G G62A U65G C68U | 9.2e-05 ± 3.1e-05 | – | – | – | 3.93e-05 ± 1.7e-05 |
| A14C G60U C71G | < 1e-05 | – | – | – | < 1e-05 |
| A15G C50G C70U | 5.62e-05 ± 1.6e-05 | – | 0.000167 ± 3.8e-05 | 0.00023 ± 5.9e-05 | 4.88e-05 ± 1.3e-05 |
| U31C C34U U65C | < 1e-05 | – | – | < 1e-05 | < 1e-05 |
| C16G A36U C50G C68G | 0.000149 ± 4.4e-05 | 0.000256 ± 4.1e-05 | 0.000979 ± 0.00021 | – | 0.000404 ± 7.1e-05 |
| U30C U47C C58A U65A | < 1e-05 | – | – | – | – |
| A14U A33C G35C U55C | < 1e-05 | – | – | – | < 1e-05 |
| G13C G59U | < 1e-05 | < 1e-05 | < 1e-05 | < 1e-05 | – |
| A14U G43A C61G U65A | < 1e-05 | – | – | – | < 1e-05 |
| U30G G43C | < 1e-05 | – | – | < 1e-05 | < 1e-05 |
| G21A G44U U57G C67A | < 1e-05 | – | – | – | – |
| A14G A33U G43A | < 1e-05 | – | – | – | < 1e-05 |
| G29A U47G | 2.24e-05 ± 1.1e-05 | – | 0.000161 ± 6.4e-05 | – | 0.000713 ± 0.00011 |
| G29U G44C U46A | < 1e-05 | – | – | – | – |
